In paper PMC7733947, “The Key Glycolytic Enzyme Phosphofructokinase Is Involved in Resistance to Antiplasmodial Glycosides” (mBio, 2020):

Tested on: Nc1ncnc2c1ncn2[C@@H]1O[C@H](COP(=O)(O)O)[C@@H](O)[C@H]1O
Assay: purified protein

| Substance | Km |
| --- | --- |
| PfHAD1 (Plasmodium falciparum 3D7) | 4.11 ± 0.88 mM |
| PfHAD2 (Plasmodium falciparum 3D7) | 4.09 ± 0.55 mM |
